Test results as given in patent publication US20030223991A1.

Columns and labels:
[1] = molecular target: human CD200Ra (SEQ ID NO:2) (human) (UniProt Q8TD46); assay: cell-based or functional assay
[2] = molecular target: mouse CD200Ra (SEQ ID NO:6) (mouse) (UniProt Q9ES57); assay: cell-based or functional assay
UniProt Q9ES57, sequence (Q9ES57 26-326 limits assumed): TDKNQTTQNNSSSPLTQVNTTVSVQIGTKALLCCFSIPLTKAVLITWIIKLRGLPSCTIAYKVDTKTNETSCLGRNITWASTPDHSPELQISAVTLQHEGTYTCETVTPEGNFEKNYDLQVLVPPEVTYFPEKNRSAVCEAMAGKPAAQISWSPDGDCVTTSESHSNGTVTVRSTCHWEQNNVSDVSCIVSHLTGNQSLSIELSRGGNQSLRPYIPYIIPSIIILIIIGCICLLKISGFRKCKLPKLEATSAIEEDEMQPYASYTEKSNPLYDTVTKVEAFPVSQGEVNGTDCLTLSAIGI

UniProt Q8TD46, sequence (Q8TD46 other isoform, or with tags, fused parts or gaps limits assumed): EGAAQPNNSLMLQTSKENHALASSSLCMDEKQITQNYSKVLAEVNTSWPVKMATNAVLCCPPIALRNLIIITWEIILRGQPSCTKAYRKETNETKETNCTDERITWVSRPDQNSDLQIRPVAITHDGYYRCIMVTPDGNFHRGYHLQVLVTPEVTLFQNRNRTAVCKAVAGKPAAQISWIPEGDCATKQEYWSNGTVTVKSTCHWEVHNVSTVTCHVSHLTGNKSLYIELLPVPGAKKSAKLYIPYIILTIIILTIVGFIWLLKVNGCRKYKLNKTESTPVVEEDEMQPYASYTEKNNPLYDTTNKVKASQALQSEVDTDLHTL

| Bioassay IC50 (inhibition of mast cell secretion) [2] [nM] | Substance | Bioassay IC50 (inhibition of β-hexosaminidase secretion by mouse mast cells expressing human CD200Ra) [1] [nM] |
| --- | --- | --- |
|  | huCD200-Ig (from UniProt P41217 31-232) (Fc fusion) | 0.3 |
| 1.3 | muCD200-Ig (from UniProt O54901 31-232) (Fc fusion) |  |
